Read-outs that look alike come from different tables or passages of the source.

By Kd is commonly meant the equilibrium constant for the complex coming apart. The low end stands for tighter binding, the high end for weaker binding.

Series [1] deals with Hepatitis B surface antigen (HBs Ag) (Hepatitis B virus) (UniProt P03141). As to conditions: magnetic bead pulldown with q-PCR, BD buffer, room temperature.
For series [2] the target is unchanged. As to conditions: magnetic bead pulldown with q-PCR, BD buffer, room temperature. This is another data set of the same source.

Chain of Hepatitis B surface antigen (HBs Ag) (Hepatitis B virus) (P03141 175-400): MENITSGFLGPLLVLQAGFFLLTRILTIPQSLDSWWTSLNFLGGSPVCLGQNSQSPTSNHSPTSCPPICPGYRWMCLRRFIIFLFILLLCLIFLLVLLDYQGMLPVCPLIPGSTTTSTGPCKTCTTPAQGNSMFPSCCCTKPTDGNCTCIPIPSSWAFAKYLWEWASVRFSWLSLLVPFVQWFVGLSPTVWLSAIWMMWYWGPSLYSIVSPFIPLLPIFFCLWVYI

For the sequence “AGCAGCACAGAGGTCCCAACCGGAATCTGCACCTCGCGTGCTACCGTGAA [K2-4]”, the Kd in series [1] is 31.4 nM. For the sequence “AGCAGCACAGAGGTCCTGCATCACGAAGCCTGGCAGCGTGCTACCGTGAA [MP-1]”, the Kd in series [2] turned out to be 28.3 nM.

For the origin of these results see patent US20190154677.
